Results published in publication PMC6774351 (Nature, 2019).

Molecular target: the molecule itself
Assay: SEC

B1: engineered NEK7 dimer (artificial NEK7 dimer based on the PKR dimer structure) (enzyme)
chain: not shown
  stoichiometry N: 2
